Target: the molecule itself
Assay: SEC

Row | Protein | stoichiometry N
1 | His-SUMO tagged Staphylococcus aureus dihydroorotase (PyrC) (enzyme) LEVLFQGPMKLIKNGKVLQNGELQQADILIDGKVIKQIAPAIEPSNGVDIIDAKGHFVSPGFVDVHVHLREPGGEYKETIETGTKAAARGGFTTVCPMPNTRPVPDSVEHFEALQKLIDDNAQVRVLPYASITTRQLGKELVDFPALVKEGAFAFTDDGVGVQTASMMYEGMIEAAKVNKAIVAHCEDNSLIYGGAMHEGKRSKELGIPGIPNICESVQIARDVLLAEAAGCHYHVCHVSTKESVRVIRDAKRAGIHVTAEVTPHHLLLTEDDIPGNNAIYKMNPPLRSTEDREALLEGLLDGTIDCIATDHAPHARDEKAQPMEKAPFGIVGSETAFPLLYTHFVKNGDWTLQQLVDYLTIKPCETFNLEYGTLKENGYADLTIIDLDSEQEIKGEDFLSKADNTPFIGYKVYGNPILTMVEGEVKFEGDK | 2
2 | native (cleaved) Staphylococcus aureus dihydroorotase (PyrC) (enzyme) GPMKLIKNGKVLQNGELQQADILIDGKVIKQIAPAIEPSNGVDIIDAKGHFVSPGFVDVHVHLREPGGEYKETIETGTKAAARGGFTTVCPMPNTRPVPDSVEHFEALQKLIDDNAQVRVLPYASITTRQLGKELVDFPALVKEGAFAFTDDGVGVQTASMMYEGMIEAAKVNKAIVAHCEDNSLIYGGAMHEGKRSKELGIPGIPNICESVQIARDVLLAEAAGCHYHVCHVSTKESVRVIRDAKRAGIHVTAEVTPHHLLLTEDDIPGNNAIYKMNPPLRSTEDREALLEGLLDGTIDCIATDHAPHARDEKAQPMEKAPFGIVGSETAFPLLYTHFVKNGDWTLQQLVDYLTIKPCETFNLEYGTLKENGYADLTIIDLDSEQEIKGEDFLSKADNTPFIGYKVYGNPILTMVEGEVKFEGDK | 2

From paper PMC5663463 (Protein expression and purification, 2012)
